Assay results published in patent US20100323955A1, “METHODS FOR TREATING OBESITY AND OBESITY RELATED DISEASES AND DISORDERS” (AMYLIN PHARMACEUTICALS, INC., priority 2007, published 2010).

Columns and labels:
[1] = Example 3: leptin effect on body weight in normal HSD versus DIO prone rats; assay type: in vivo, rat; conditions: FIG. 9
From the text: Normal, lean HSD rats were divided into two treatment groups. […] […] The DIO prone animals described herein appear resistant to the weight reducing effect of leptin.

[2] = Example 8: 24-week randomized, double-blind clinical study of pramlintide and metreleptin in overweight and obese subjects; assay type: in vivo, human; conditions: 4-week lead-in; all subjects received pramlintide 180 then 360 mcg BID; columns name the later randomization groups
Method: To evaluate inter alia the safety, tolerability and effect of the combination of an amylin agonist (pramlintide) and a leptin (metreleptin) on changes in body weight, a 24-week, randomized, double-blind, active-drug-controlled, multicenter study was conducted under USFDA approved protocols. Secondary objectives of the study were the determination of the pharmacokinetics of pramlintide and leptin, waist circumference, rate of change in body weight, and patient reported outcomes including for example without limitation perception of well-being related to weight change and mood. The study enrolled overweight and obese subjects with defined BMI ([…]), with enrollment statistics as provided in Table 2. […] Subjects treated with pramlintide/metreleptin lost an average of 25 pounds from the start of the 24-week study compared with an average of 17 pounds for subjects treated with pramlintide alone.
In an initial lead-in phase, all subjects received dietary instructions and treatment with pramlintide at 180 mcg BID for two weeks, followed by pramlintide at 360 mcg BID for two weeks. Subjects who completed the 4-week lead-in period and who lost 2-8 percent body weight during this period were eligible to continue the study. The term “enrolled” (Table 2) refers to subjects (N=177) receiving at least one dose of pramlintide during the lead-in period. […]

B1: murine leptin (protein, UniProt P41160 22-167, looked up)
Leptin: VPIQKVQDDTKTLIKTIVTRINDISHTQSVSAKQRVTGLDFIPGLHPILSLSKMDQTLAVYQQVLTSLPSQNVLQIANDLENLRDLLHLLAFSKSCSLPQTSGLQKPESLDGVLEASLYSTEVVALSRLQGSLQDILQQLDVSPEC
notes: murine leptin (Peprotech, catalog#450-31)
body weight, DIO prone animals ([1]; DIO prone rats, leptin dose printed 500 mg/kg/day): ineffective
body weight, normal HSD rats ([1]; normal, lean HSD rats, leptin 500 μg/kg/day, 14 days): significant and sustained reduction in body weight
Mean Change in Body Weight (kg) over lead-in period [2]: -3.97 kg
